Measured values reported in article PMC4289141.

Experiments:
[1] = biological target: ^C81/C96RIDC1 (the C81/C96 double mutant of Rosetta Interface Designed Cytochrome 1) (UniProt P0ABE7); assay: AUC
[2] = biological target: ^C81/C96RIDC1 (the C81/C96 double mutant of Rosetta Interface Designed Cytochrome 1) (UniProt P0ABE7); assay: cross-linking

Substance: ^C81/C96RIDC1 (the C81/C96 double mutant of Rosetta Interface Designed Cytochrome 1) (from UniProt P0ABE7 23-128) (natural protein)
- stoichiometry N [1]: 4
- abundance of polymeric species (19:1 GSH/GSSG, 1 mM, 1 day) [2]: 13%
- abundance of the tetramer (air oxidation, room temperature) [2]: 48%
- yield of the tetramer (19:1 GSH/GSSG, 1 mM, 1 day) [2]: 63%
